Measurements taken from the Immune Epitope Database (IEDB).

Key:
HLA-B*58:01 [1] = assay: IEDB peptide-MHC binding, purified MHC/direct/fluorescence; filed as Kd, often an IC50 or EC50 that approximates it; ≥ and ≤ were set here for values at or beyond the usual limits of such assays
HLA-A*01:01 = assay: as above
HLA-B*07:02 = assay: as above
HLA-B*15:01 = assay: as above
HLA-B*27:05 = assay: as above
HLA-A*26:01 = assay: as above; details: source organism: Salmonella enterica subsp. enterica serovar Typhimurium
HLA-B*15:17 = assay: as above
HLA-A*03:01 = assay: as above
HLA-A*02:01 [2] = assay: as above
HLA-B*57:01 = assay: as above
HLA-A*02:03 = assay: IEDB peptide-MHC binding, purified MHC/competitive/radioactivity; filed as Kd, often an IC50 or EC50 that approximates it; ≥ and ≤ were set here for values at or beyond the usual limits of such assays; details: source organism: Dengue virus 2 Jamaica/1409/1983
HLA-A*02:17 = assay: as above
HLA-A*02:06 = assay: as above
HLA-A*02:01 [3] = assay: as above
HLA-A*24:02 = assay: IEDB peptide-MHC binding, purified MHC/competitive/fluorescence; ≥ and ≤ were set here for values at or beyond the usual limits of such assays; details: source organism: Zaire ebolavirus
HLA-B*08:01 = assay: as above; details: source organism: Zaire ebolavirus
HLA-A*11:01 [4] = assay: as above
HLA-A*02:01 [5] = assay: as above; details: source organism: Zaire ebolavirus
HLA-B*58:01 [6] = assay: IEDB peptide-MHC binding, purified MHC/competitive/radioactivity; filed as Kd, often an IC50 or EC50 that approximates it; ≥ and ≤ were set here for values at or beyond the usual limits of such assays
HLA-B*40:01 = assay: IEDB peptide-MHC binding, purified MHC/direct/fluorescence; filed as Kd, often an IC50 or EC50 that approximates it; ≥ and ≤ were set here for values at or beyond the usual limits of such assays
HLA-A*29:02 = assay: as above
HLA-B*44:02 = assay: as above
HLA-A*69:01 = assay: as above
HLA-A*31:01 = assay: as above
HLA-B*46:01 = assay: as above
HLA-B*48:01 = assay: as above
HLA-B*18:01 = assay: as above
HLA-B*53:01 = assay: IEDB peptide-MHC binding, purified MHC/competitive/radioactivity; filed as Kd, often an IC50 or EC50 that approximates it; ≥ and ≤ were set here for values at or beyond the usual limits of such assays; details: source organism: Dengue virus 4 Philippines/H241/1956
HLA-B*39:01 = assay: IEDB peptide-MHC binding, purified MHC/direct/fluorescence; filed as Kd, often an IC50 or EC50 that approximates it; ≥ and ≤ were set here for values at or beyond the usual limits of such assays; details: source organism: West Nile virus
HLA-A*11:01 [7] = assay: as above; details: source organism: West Nile virus
[8] = source organism: Salmonella enterica subsp. enterica serovar Typhimurium
[9] = source organism: Dengue virus 2 Jamaica/1409/1983
[10] = source organism: Dengue virus 1 Singapore/S275/1990
[11] = source organism: Dengue virus 1 Brazil/97-11/1997
[12] = source organism: Dengue virus 3 China/80-2/1980
[13] = source organism: Vibrio cholerae
[14] = source organism: Yellow fever virus
[15] = source organism: West Nile virus

KSNGAQQWL
Kd (HLA-B*58:01 [1]; [8]): 355 nM | Kd (HLA-A*01:01; [8]): ≥ 20 µM | Kd (HLA-B*07:02; [8]): ≥ 20 µM | Kd (HLA-B*15:01; [8]): ≥ 20 µM | Kd (HLA-B*27:05; [8]): ≥ 20 µM | Kd (HLA-A*26:01): ≥ 20 µM | Kd (HLA-B*15:17; [8]): 6 nM | Kd (HLA-A*03:01; [8]): ≥ 20 µM | Kd (HLA-A*02:01 [2]; [8]): ≥ 20 µM | Kd (HLA-B*57:01; [8]): 2.16 µM

LLLTLLATV
Kd (HLA-A*02:03): 1.55 nM | Kd (HLA-A*02:17; [9]): 157 nM | Kd (HLA-A*02:06; [9]): 1.01 nM

MLLMLLPTA
Kd (HLA-A*02:17; [10]): 161 nM | Kd (HLA-A*02:06; [11]): 1.08 nM | Kd (HLA-A*02:01 [3]; [10]): 0.482 nM

QGIVRQRVI
IC50 (HLA-A*24:02): 11.4 µM | IC50 (HLA-B*08:01): 7.35 µM | IC50 (HLA-A*11:01 [4]; source organism: Zaire ebolavirus): ≥ 159000 nM | IC50 (HLA-A*02:01 [5]): ≥ 401 µM

QLANAIFKL
Kd (HLA-A*02:17; [12]): 24.4 nM | Kd (HLA-A*02:01 [3]; [12]): 4.09 nM

QMEQWGCPW
Kd (HLA-B*58:01 [1]; [13]): 1060 nM | Kd (HLA-B*15:17; [13]): 147 nM | Kd (HLA-B*57:01; [13]): 5.43 µM

SAGESSILR
IC50 (HLA-A*11:01 [4]; source organism: Vaccinia virus Copenhagen): 1410 nM

TAAVLLLVTH
Kd (HLA-B*58:01 [6]; source organism: Dengue virus 3 Singapore/8120/1995): 304 nM

VLLLVTHYA
Kd (HLA-A*02:17; [12]): 6820 nM | Kd (HLA-A*02:01 [3]; [12]): 6.97 nM

VNRWLFRHL
Kd (HLA-B*58:01 [1]; [14]): ≥ 20000 nM | Kd (HLA-A*01:01; [14]): ≥ 20 µM | Kd (HLA-B*07:02; [14]): ≥ 20 µM | Kd (HLA-B*40:01; [14]): ≥ 20 µM | Kd (HLA-B*15:01; [14]): ≥ 20 µM | Kd (HLA-A*29:02; [14]): ≥ 20 µM | Kd (HLA-B*27:05; [14]): ≥ 20 µM | Kd (HLA-B*44:02; [14]): ≥ 20 µM | Kd (HLA-A*69:01; [14]): ≥ 20 µM | Kd (HLA-A*03:01; [14]): ≥ 20 µM | Kd (HLA-A*31:01; [14]): ≥ 20 µM | Kd (HLA-B*46:01; [14]): ≥ 20 µM | Kd (HLA-B*48:01; [14]): ≥ 20 µM | Kd (HLA-B*18:01; [14]): ≥ 20 µM | Kd (HLA-A*02:01 [2]; [14]): ≥ 20 µM | Kd (HLA-B*57:01; [14]): ≥ 20 µM

WASVKKDLIS
Kd (HLA-B*58:01 [6]; [11]): 81.3 nM

WVAEIQPQW
Kd (HLA-B*58:01 [6]; source organism: Dengue virus 4 Philippines/H241/1956): 57.6 nM | Kd (HLA-B*53:01): 6.52 nM

YCPGTTVTL
Kd (HLA-A*01:01; [15]): ≥ 20 µM | Kd (HLA-B*07:02; [15]): ≥ 20 µM | Kd (HLA-B*40:01; [15]): ≥ 20 µM | Kd (HLA-B*15:01; [15]): ≥ 20 µM | Kd (HLA-A*29:02; [15]): ≥ 20 µM | Kd (HLA-B*39:01): 1310 nM | Kd (HLA-B*27:05; [15]): ≥ 20 µM | Kd (HLA-A*11:01 [7]): ≥ 20 µM | Kd (HLA-B*44:02; [15]): ≥ 20 µM | Kd (HLA-A*69:01; [15]): ≥ 20 µM | Kd (HLA-A*03:01; [15]): ≥ 20 µM | Kd (HLA-A*31:01; [15]): ≥ 20 µM | Kd (HLA-B*46:01; [15]): ≥ 20 µM | Kd (HLA-B*48:01; [15]): ≥ 20 µM | Kd (HLA-B*18:01; [15]): ≥ 20 µM | Kd (HLA-B*57:01; [15]): ≥ 20 µM

YMWLGARFL
Kd (HLA-A*02:17; [9]): 94.2 nM | Kd (HLA-A*02:01 [3]; [9]): 6.72 nM
